This is an account of results in PMC11676761, “Mining and Characterization of Amylosucrase from Calidithermus terrae for Synthesis of α-Arbutin Using Sucrose” (International Journal of Molecular Sciences, 2024).

As a reminder, the Km is the substrate concentration at which the rate is half of its maximum. By kcat is commonly meant the maximal rate divided by the concentration of active sites.

Substrate in this data set: OC[C@H]1O[C@@](CO)(O[C@H]2O[C@H](CO)[C@@H](O)[C@H](O)[C@H]2O)[C@@H](O)[C@@H]1O
The experiment in a line: DNS assay of released fructose, Lineweaver-Burk. The data set is classed as biochemical, Calidithermus terrae. Conditions: 42.0 °C.

B1: (Calidithermus terrae) (protein)
chain: MFSTPLPAELRPLLERLLVQAESDLSGSDLETFSLRLERYLPDLHAGLAAVYPDVEGLLERLLPVLTAAHRARPAGLKRLDAHRLLAPDWFQRPEMIAYVAYTERFAGTLKGIEERLDYLEELGVRYLHLMPFLKPRPAPHDGGYAVMDYRAVREDLGSMDDLEALTAKLRARGIALCCDLVLNHVAQEHEWAVRARAGEARYQHYFHMFPDRTLPDEYEKTLPEVFPDFAPGNFTFDEASGKWVWTTFNRWQWDLNWANPAVFLEFADLILWLANRGVEVFRLDAIAFIWKRLGTNCQNQPEVHAITQALRAVARVVAPAVLFKAEAIVAPDDLIHYLGQGEHFGLVSDTAYHNSLMVQIWSSLASRDVRLMSEALRRFPVKPTNTAWNTYLRCHDDIGWAIADDDAARVGLSGEAHRRFLSDYYSGRFPTSPSRGLVFQENPRTGDRRISGSGASLAGLEQALEQNDPRQVHLSLERLLLGHAVVLGFGGIPLLYMGDELALLNDYSYLEEPEHAEDNRWVHRPHMDWDKAARAKADPASTEGRMYHGLLHLIRVRRATPHFHAAIEAQILEPRNPHVFGYVRRHPLGNLVALYNFSEEVQYYPAEVLWQQGLSLPHDRIGGQLVPIERHLVRLEPYARLWITDEV
With B1, the Km stood at 89.39 mM and the turnover number (kcat) came out at 86.3995 s⁻¹.
